The record followed here is patent publication US12686723 (SHANGHAI ACEMAB, dated 2026).

Changes are numbered by the printed parent chain.

T1: human BCMA antigen (6His tag, product number CC28, Novoprotein) (human, UniProt Q02223 1-54)
T1 construct: Bought reagent; not shown: 6His tag
T1 sequence (looked up): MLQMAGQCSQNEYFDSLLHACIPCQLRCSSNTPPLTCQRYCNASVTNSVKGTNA

T2: commercial recombinant human BCMA protein (Fc tag, Cat. No. CS79, Novoprotein) (human, UniProt Q02223 1-54)
T2 construct: Bought reagent; also called Human recombinant BCMA protein; BCMA antigen (Novoprotein cat: CS79); not shown: Fc tag
T2 sequence (looked up): T1 sequence (looked up)

B1: anti-human BCMA monoclonal antibody 31F5 (antibody, V domains shown)
VH: EVQLVESGGGLVQPGRSLRLSCAASGFTFDDYAMHWVRQAPGKGLEWVSGISWNSDNIAYADSVKGRFTISRDNAENSLYLQMNSLRTEDTAIYYCAKVAAATFDYRGQGTLVTVSS
VL: DIQMTQSPSSLSASVGDRVTITCRASQSISSYLNWYQQKPGKAPKLLIFAASSLQSGVPSRFSGSGSGTDFTLTISSLQPEDFATYSCQQSFSIPFTFGPGTKVDIKR
notes: Tested as hybridoma supernatant (ELISA) or Protein G-purified hybridoma antibody (SPR); constant region of the tested hybridoma material is uncertain (anti-mouse IgG secondary used)
B2: anti-human BCMA monoclonal antibody 11G1 (antibody, V domains shown)
VH: EVQLVESGGGLVQPGRSLRLSCEASGFTFDDYAMHWVRQPPGKGLEWVSGISWNSDNIGYADSVKGRFTISRDNAKNSLYLQMNSLRAEDTALYYCAKIQSGSSFDYWGQGTLVTVSS
VL: DIQMTQSPSSLSASVGDRVTITCRASQSIINFLNWYQQKPGKAPKLLIYGASNLQSGVPSRFSGSGSGTDFTLTISSLQPEDFATYCCQQSSSIPLTFGGGTKVEIKR
notes: as for B1
B3: anti-human BCMA monoclonal antibody 20A2 (antibody, human IgG1, kappa, V domains shown)
VH: QIQLVQSGAEVKKPGASVKVSCKASGYTFTAYYLHWVRQSPGHGLEWMGRIYPNSGDTNYAQKFQGRVTMTRDTSINTAYMELSRLRSDDTALYYCARGFNWNYEGGFDIWGQGTMVTVSS
VL: DVVMTQSPLSLSVTLGQPASISCRSGQSLVYSDGNTYLNWFQQRPGQSPRRLIYKLSSRDSGVPDRFSGSGSGTDFTLKISRMEAEDVGVYYCMQRTHWPPTFGQGTKVEIKR
notes: as for B1
B4: anti-human BCMA monoclonal antibody 15A7 (antibody, human IgG1, kappa, V domains shown)
VH: EVQLVESGGGLVQPGGSLRLSCEASGFTFDDCAMHWVRQTPGKGLEWVSGISWNSDTMGYADSVKGRFIISRDNAKNSLYLQMNSLRVEDTALYHCTRVRAAVFDYWGQGVLVTVSS
VL: DIHMTQSPSSLSASVGDRVTITCRASQSISSYLNWFQQKPGKAPTVLIYAASSLQSGVSSRFSGRGSGADFTLTISSLQPEDFASYFCQQSFSPLYIFGQGTKVEIKR
notes: as for B1
B5: anti-human BCMA monoclonal antibody 23C4 (antibody, human IgG1, kappa, V domains shown)
VH: EVQLVESGGGLVQPGRSLRLSCAASGFTFADHAMHWVRQAPGKGLEWVSGISWNSDHIGYADSVKGRFTISRDNAKNSLYLQMNSLRPEDTALYYCAKDIFSPTGDGYWGQGTLVTVSS
VL: DIQMTQSPSSLSASVGDRVTITCRASQDIRNNLGWFQQKPGKTPKRLIYAASSLQSGVPSRFSGSGSGTEFTLIISSLQPEDFATYYCLHHNSYPPTFGQGTKVEIKR
notes: as for B1
B6: anti-human BCMA monoclonal antibody 27A7 (antibody, human IgG1, kappa, V domains shown)
VH: B5 VH with A30D, D56V, P88A, G107D
VL: B5 VL with I74T
notes: as for B1
B7: anti-human BCMA monoclonal antibody 20A9 (antibody, human IgG1, kappa, V domains shown)
VH: QVQLVQSGAEVKKPGASAKVSCKASGYTFTSYAMQWVRQAPGQRLEWMGWINAGNGNIKYSQKFQGRVTITRDTSASTAYMELSSLRSEDTAVYYCARGGRLELDVYYYFYYMDVWGKGTTVTVSS
VL: DIVMSQSPDSLAVSLGERTTINCKSSQSVLHSSQNKNYLAWYQQKPGQPPNPLIHWASTRESGVPDRFSGSGSGTDFTLTISSLQAEDVAVYYCQQYYRVPFTFGPGTKVDIKR
notes: as for B1
B8: anti-human BCMA monoclonal antibody 15H6 (antibody, human IgG1, kappa, V domains shown)
VH: B7 VH with I58T, V106I
VL: B7 VL
notes: as for B1
B9: anti-human BCMA monoclonal antibody 7E11 (antibody, human IgG1, kappa, V domains shown)
VH: EVQLVESGGGLVQPGGSLRLSCAASGFTFSYYDMHWVRQGTGKGLEWVSGIGTSGDTYYPDSVKGRFTISRENAKNSLNLQMNSLRDGDTAMYYCARGPYYYNSSGYYSYDALDIWGQGTMVTVTS
VL: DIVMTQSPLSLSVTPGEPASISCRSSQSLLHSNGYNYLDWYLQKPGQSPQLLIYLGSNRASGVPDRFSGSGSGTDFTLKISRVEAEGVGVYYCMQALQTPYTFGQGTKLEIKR
notes: Tested as hybridoma supernatant (ELISA) or Protein G-purified hybridoma antibody (SPR)
B10: anti-human BCMA monoclonal antibody 18D10 (antibody, human IgG1, kappa, V domains shown)
VH: EVRLVESGGGLVQPGRSLRLSCAASGFTSNDYAMHWVRQAPGRGLEWVSGISWNSDSIGYADSVKGRFTISRDNAKNSLYLQMNSLRTEDTALYYCATVVSAYFDYWGQGTLVTVSS
VL: DIQMTQSPSSLSASVGDRVTITCRTSQSISTYLNWYQQKPGKAPKLLIYAASSLKSGVPSRFSGSGSGTDFTLTISSLQPEDFATYFCQGSYIIPLTFGGGTRVEIKR
notes: as for B1
B11: anti-human BCMA monoclonal antibody 11B10 (antibody, human IgG1, kappa, V domains shown)
VH: QVQLVQSGAEVKKPGASVKVSCKASGYTFTSYAMHWVRQAPGQRLEWMGWINTGNGNTKYSQKFQGRVTITRDTSASTAYMELSSLRSEDTAVYYCARGGSITGNIFYYYYYMDVWGKGTTVTVAS
VL: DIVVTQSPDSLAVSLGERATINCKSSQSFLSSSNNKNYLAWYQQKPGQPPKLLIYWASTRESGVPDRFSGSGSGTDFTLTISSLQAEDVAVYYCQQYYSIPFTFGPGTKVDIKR
notes: as for B1

The target of one assay is T1, human BCMA antigen (6His tag, product …). Briefly: SPR, Biacore T200, BCMA-6His on chip, antibody as analyte. An excerpt:
Example 8: Affinity Analysis of Anti-Human BCMA Monoclonal Antibody Binding to Human BCMA The kit, consumables and instruments used in this example were purchased from GE Healthcare; According to the instructions provided, human BCMA antigen (6His tag, product number CC28, Novoprotein) is conjugated to the chip surface, and then HBS-EP+ buffer solution is double-diluted to prepare different concentrations of the antibody to be analyzed, and meanwhile set the 0 concentration point and the quality control concentration point; According to the manufacturer's standard setting procedure of Biacore T200, the flow cell that captures ligand is used as the detection channel, the flow cell of un-captured ligand as the reference channel, and the HBS-EP+ buffer solution as the mobile phase, and different concentrations of the antibody solution to be analyzed are injected respectively; The SPR signal is collected by the Biacore T200 Control software, and then the data is processed by the Biacore T200 Evaluation analysis software; Finally, the Ka, Kd and KD values are calculated for the kinetic analysis or steady-state analysis of the obtained kinetic curves, and the results are shown in Table. 2.
B1 came in with a Kd of 0.0483 nM, a koff of 2.78e-05 s⁻¹ and a kon of 576000 M⁻¹ s⁻¹.

As for B2, the Kd came to 0.0345 nM, the koff was determined as 1.63e-05 s⁻¹ and the kon amounted to 472000 M⁻¹ s⁻¹.

For B3, the Kd stood at 0.0656 nM, the koff is 5.29e-05 s⁻¹ and the kon stood at 807000 M⁻¹ s⁻¹.

For the molecule B4, the Kd is 0.125 nM, the off-rate (koff) was determined as 6.02e-05 s⁻¹ and the kon turned out to be 480000 M⁻¹ s⁻¹.

Consider B5, for which the Kd came to 0.146 nM, the koff was determined as 7.01e-05 s⁻¹ and the kon turned out to be 481000 M⁻¹ s⁻¹.

For B6, the Kd stood at 0.0117 nM, the koff amounted to 7.22e-05 s⁻¹ and the kon worked out at 6.18e+06 M⁻¹ s⁻¹.

In turn, B7 gave a Kd of 0.0409 nM, a koff of 2.34e-05 s⁻¹ and a kon of 573000 M⁻¹ s⁻¹.

B8 showed a Kd of 0.0885 nM, a koff of 4.28e-05 s⁻¹ and a kon of 483000 M⁻¹ s⁻¹.

B9 came in with a Kd of 0.0504 nM, a koff of 2.57e-05 s⁻¹ and a kon of 510000 M⁻¹ s⁻¹.

Turning to B10, binding was put at a Kd of 0.0477 nM, the koff turned out to be 2.43e-05 s⁻¹ and the kon was 510000 M⁻¹ s⁻¹.

As for B11, the Kd came to 0.253 nM, the koff stood at 0.000269 s⁻¹ and the kon was 1.06e+06 M⁻¹ s⁻¹.

A further assay has as its target T2, commercial recombinant human BCMA …. Briefly: ELISA, BCMA-Fc (CS79) coated on plate, hybridoma supernatant diluted 1:50, anti-mouse IgG-HRP. As for the experimental part: Dilute BCMA antigen (Novoprotein cat: CS79) with PBS to 0.5 ng/μl; add 100 μl/well of antigen to a 96-well flat-bottom ELISA plate (Maxisorp), seal with cling film, and store at 4° C. overnight; pour off the antigen the next day. After that, wash with PBS (200 μl/well), pour off the PBS, pat dry on absorbent paper and add 200 μl of blocking solution to each well and block at room temperature for 2 hours. After blocking, pour off the blocking solution and pat dry on absorbent paper; add 50 μl of HRP-conjugated goat anti-mouse IgG secondary antibody diluted in diluent, place at room temperature for 1 hour, then pour off the liquid and wash 5 times with washing solution (200 μl/well), finally pour off the washing solution and pat dry on absorbent paper; add 50 μl/well of TMB-hydrogen peroxide urea solution substrate solution and place it at room temperature for 3-5 minutes, add 50 μl/well of 0.25M sulfuric acid to stop the reaction, the optical density was measured by obtaining the absorbance with a 450 nm filter under a multifunctional microplate reader.
In the case of B1, the OD450 amounted to 3.

With B2, the OD450 was 2.71.

For the molecule B4, the OD450 came out at 2.12.

As for B5, the OD450 came to 2.86.

On to B6, for which the OD450 is 2.59.

As to B7, the OD450 amounted to 2.2.

On to B8, for which the OD450 was 2.49.

Turning to B9, the OD450 was 2.3.

In the case of B10, the OD450 was found to be 2.4.

Regarding B11, the OD450 was determined as 2.55.

One may read the Kd as the equilibrium constant for the complex coming apart. A higher Kd goes with a looser complex. What is called koff is the rate constant with which the complex falls apart. The low end stands for slow dissociation, the high end for fast dissociation. One may read the kon as the second-order rate constant of association.
